The source of these data is patent US6919204B2, “Modulation of gene expression using localization domains” (Sangamo Biosciences, Inc., priority 2000, dated 2005).

The subject of assay [1] is G5DE5tkLuc reporter in S2 cells. Put plainly: Effect of Trichostatin-A on Gal4-tethered repression. Format: cell-based, Drosophila. Conditions: TSA 100 nM and 400 nM, 24 h before harvest. As to the method: (§1) Drosophila S2 cells were grown in Schneider's medium (Sigma) at 27° C. containing 10% FBS and penicillin/streptomycin. Cells were transfected using the Superfect reagent (Qiagen) following the manufacturer's directions. Transfection assays included 1.5 μg of either the pG5DE5tkLuc reporter or the p-37tkRLuc internal control, essentially as described in Chen et al. (1998) Mol Cell Biol 18:7259-7268. The Gal4 DNA binding domain constructs, pACTIN-SV-Gal4-Gro, pACTIN-SV-Gal4-MBD and pACTIN-SV-Gal4-MBDΔ were constructed by insertion of the Gal4 DBD into the HindIII/PstI sites of pACTIN-SV followed by insertion of Gro, dMBD-like and dMBD-likeΔ into the EcoRI site of the resulting plasmid. Quantities of individual Gal4 plasmids were varied as described in the figure legends. The total amount of plasmid was normalized to 4 μg by addition of pACTIN-SV vector (Huynh et al. (1999) J. Mol Biol 288:13-20) as carrier. Cells were harvested 12 h after transfection and luciferase assays were performed using an Enhanced Luciferase Assay Kit (Pharmingen) according to the manufacturer's instructions. Where indicated, transfected cells were treated with Trichostatin A (TSA, Wako) for 24 h before harvest. If dMBD-like represses transcription through recruitment of a Drosophila Mi-2 complex, transcriptional repression should be sensitive to inhibitors of histone deacetylases. Accordingly, the effect of Trichostatin-A, a histone deacetylase inhibitor, on dMBD-like-mediated repression was tested.

For assay [2] the test system is unchanged. Put plainly: Cotransfection transcription assay, Gal4-tethered repression of luciferase reporter. It counts as cell-based, Drosophila. The settings on record: transfection into S2 cells; protein not tethered. As to the method:
as §1, with “If dMBD-like represses transcription through recruitment of a Drosophila Mi-2 complex, transcriptional repression should be sensitive to inhibitors of histone deacetylases. Accordingly, the effect of Trichostatin-A, a histone deacetylase inhibitor, on dMBD-like-mediated repression was tested.” left out
Background: In a reporter assay the amount or activity of a reporter protein is the signal.

Assay [3] concerns methylated (GAM12) and unmethylated (GAC12) DNA probes. The assay can be described thus: Southwestern assay with immobilized recombinant protein. It counts as binding. How it is done:
(§2) Gel mobility shifts were performed in 10% polyacrylamide gels run in 0.5×TBE buffer (45 mM Tris, pH 8.0, 45 mM boric acid, 1 mM EDTA) using GAC12 or GAM12 double-stranded oligonucleotide probes, essentially as described in Wade et al. (1999) Nature Genet. 23:62-66. One picomole of radiolabelled probe was mixed with purified recombinant protein as indicated in the figure legends in 10 mM Tris HCl pH 8.0, 3 mM MgCl2, 50 mM NaCl, 0.1 mM EDTA, 0.1% NP-40, 2 mM DTT, 5% glycerol and 0.4 mg/ml BSA. The samples were incubated for 30 min at 37° C. 30 pmoles of competitor DNA (GAC12 or GAM12) were used per binding reaction. Gels were scanned on a Phosphormager (Molecular Dynamics). The procedure used for southwestern assays is as described in Wade et al. (1999), supra.
In Southwestern assays using immobilized protein, neither isoform interacted with the probes, regardless of methylation status (FIG. 1C). Thus, either the proteins fail to bind or they are unable to refold on the membrane surface.

Assay [4] shares this test system. Put plainly: Gel mobility-shift assay (solution binding). Conditions: GAC12 or GAM12 probe; 50, 75, 150 ng protein. How it is done: as §2
Solution interactions with DNA were also examined using an electrophoretic mobility shift assay (FIG. 1D). […] No interaction was detected under these conditions, even non-specific aggregation.

As for `CC(/C=C/C(=O)NO)=C\[C@@H](C)C(=O)c1ccc(N(C)C)cc1` [Trichostatin-A], in assay [1], the “relief of repression by Gal4-Gro” value was “relieves repression”, the “relief of repression mediated by tethered dMBD-like” value was “largely relieved” and the “relief of repression mediated by tethered dMBD-likeΔ” value was “largely relieved”.

B1: dMBD-likeΔ: shorter Drosophila MBD-like isoform, product of the 842 base mRNA (SEQ ID NO:15) (protein)
chain: MQMNPSVTIERKRVDCSVLPKGWQRDEVRKSGSSANNNASSNNNSSATASSNNNNNKVDVFYYSRALRTDVSLVPPIRQTASIFKQPVTVIRNHKQDPAKAKNEPKHGTREKPKQLFWEKRLERLRACHDSGEELDDISLPKTIRTVGPNVNEQTVLQSVATALHMLNAGVHGQSSTKADLTKNAMAFMNPEQPLMHAVIISEDDIRKQEDRVGVARRKLQDALKT
With B1, in assay [2], the “transcriptional repression lacking the Gal4 DBD” value was “failed to repress transcription”.

B2: dMBD-like: Drosophila methyl CpG binding domain protein homolog, product of the 1115 base mRNA (SEQ ID NO:14) (protein)
chain: MQMNPSVTIERKRVDCSVLPKGWQRDEVRKSGSSANNNASSNNNSSATASSNNNNNKVDVFYYSPTGKRAEGKPQDIAIPDFQPGKMPHCALPSPSISLYRCSAMPLPIASGGGNGATSGSAANALKRKFARSQGGNAAGAAGAAPPAATASSAATATAASASPSTANRQQQQIELSRALRTDVSLVPPIRQTASIFKQPVTVIRNHKQDPAKAKNEPKHGTREKPKQLFWEKRLERLRACHDSGEELDDISLPKTIRTVGPNVNEQTVLQSVATALHMLNAGVHGQSSTKADLTKNAMAFMNPEQPLMHAVIISEDDIRKQEDRVGVARRKLQDALKT
In the case of B2, in assay [3], the “binding of immobilized protein to DNA probes (Southwestern)” value is “fails to bind methylated DNA”. Also, the “binding to DNA in solution (electrophoretic mobility shift)” value in assay [4] is “fails to bind methylated DNA in solution”. Moreover, the “transcriptional repression lacking the Gal4 DBD” value in assay [2] is listed as “failed to repress transcription”.
